A word on the stoichiometry N: it is the number of molecules, sites or subunits per partner or assembly.

This data set deals with the molecule itself. Nature of the data set: mass photometry; sample 25 to 100 nM in a gasket well on glass coverslips, acquisition for 60 s; mass from contrast comparison with bovine serum albumin calibrants.

B1: Cavin1 (1–190) (domain or fragment, UniProt O54724 1-190, looked up)
chain: MEDVTLHIVERPYSGFPDASSEGPEPTQGEARATEEPSGTGSDELIKSDQVNGVLVLSLLDKIIGAVDQIQLTQAQLEERQAEMEGAVQSIQGELSKLGKAHATTSNTVSKLLEKVRKVSVNVKTVRGSLERQAGQIKKLEVNEAELLRRRNFKVMIYQDEVKLPAKLSVSKSLKESEALPEKEGDELGE
notes: Cavin1, residues 1 to 190 (DR1 1–43, HR1 45–155, DR2 156–190); By mass photometry it was detected as trimers and also as monomers; also called N-terminal part (residues 1 to 190); DR1–HR1–DR2; source: E. coli Rosetta pLysS or BL21(DE3)pLysS, purified (TALON Superflow, gel filtration on Sephacryl S-300 HR)
On to B1, for which the “stoichiometry N” value was 3.
